Test results published in patent US20260009051A1.

Experiments:
Assay in all cases: FACS, mAb 5 µg/ml, CD20 variant on transfected HEK293 cells
E168A = molecular target: E168A
E174Y = molecular target: E174Y
E174D = molecular target: E174D
K175F = molecular target: K175F
WT = molecular target: WT
N171A = molecular target: N171A
P172A = molecular target: P172A
S177A = molecular target: S177A
N176A = molecular target: N176A
S173A = molecular target: S173A
A170P = molecular target: A170P
K175R = molecular target: K175R
K175R, sequence (CD20, as listed by the source K175R K175R limits assumed): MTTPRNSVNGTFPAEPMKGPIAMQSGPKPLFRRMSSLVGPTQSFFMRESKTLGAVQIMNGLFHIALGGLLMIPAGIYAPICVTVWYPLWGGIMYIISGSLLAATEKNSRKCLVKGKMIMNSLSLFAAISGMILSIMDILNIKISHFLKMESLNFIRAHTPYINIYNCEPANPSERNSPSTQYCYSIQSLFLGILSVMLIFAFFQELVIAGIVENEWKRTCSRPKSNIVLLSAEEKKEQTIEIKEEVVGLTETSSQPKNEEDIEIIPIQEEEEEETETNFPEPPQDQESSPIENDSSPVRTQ

N171H = molecular target: N171H
N171H, sequence (CD20, as listed by the source N171H N171H limits assumed): as the sequence (CD20, as listed by the source K175R K175R limits assumed) above, with N171H, R175K counted along it

A170S = molecular target: A170S
A170S, sequence (CD20, as listed by the source A170S A170S limits assumed): as the sequence (CD20, as listed by the source K175R K175R limits assumed) above, with A170S, R175K counted along it

K175F, sequence (CD20, as listed by the source K175F K175F limits assumed): as the sequence (CD20, as listed by the source K175R K175R limits assumed) above, with R175F counted along it
N171A, sequence (CD20, as listed by the source N171A N171A limits assumed): as the sequence (CD20, as listed by the source K175R K175R limits assumed) above, with N171A, R175K counted along it
S177A, sequence (CD20, as listed by the source S177A S177A limits assumed): as the sequence (CD20, as listed by the source K175R K175R limits assumed) above, with R175K, S177A counted along it
WT, sequence (CD20, as listed by the source limits assumed): as the sequence (CD20, as listed by the source K175R K175R limits assumed) above, with R175K counted along it
E174Y, sequence (CD20, as listed by the source E174Y E174Y limits assumed): as the sequence (CD20, as listed by the source K175R K175R limits assumed) above, with E174Y, R175K counted along it
E174D, sequence (CD20, as listed by the source E174D E174D limits assumed): as the sequence (CD20, as listed by the source K175R K175R limits assumed) above, with E174D, R175K counted along it
E168A, sequence (CD20, as listed by the source E168A E168A limits assumed): as the sequence (CD20, as listed by the source K175R K175R limits assumed) above, with E168A, R175K counted along it
P172A, sequence (CD20, as listed by the source P172A P172A limits assumed): as the sequence (CD20, as listed by the source K175R K175R limits assumed) above, with P172A, R175K counted along it
S173A, sequence (CD20, as listed by the source S173A S173A limits assumed): as the sequence (CD20, as listed by the source K175R K175R limits assumed) above, with S173A, R175K counted along it
N176A, sequence (CD20, as listed by the source N176A N176A limits assumed): as the sequence (CD20, as listed by the source K175R K175R limits assumed) above, with R175K, N176A counted along it
A170P, sequence (CD20, as listed by the source A170P A170P limits assumed): as the sequence (CD20, as listed by the source K175R K175R limits assumed) above, with A170P, R175K counted along it

% of best binder (E168A) [%]	% of best binder (E174Y) [%]	% of best binder (E174D) [%]	% of best binder (K175F) [%]	% of best binder (WT) [%]	% of best binder (N171A) [%]	% of best binder (P172A) [%]	% of best binder (S177A) [%]	% of best binder (N176A) [%]	% of best binder (S173A) [%]	% of best binder (A170P) [%]	% of best binder (K175R) [%]	% of best binder (N171H) [%]	% of best binder (A170S) [%]	Substance
48	51	57	46	59	46	31	40	2	55	38	53	58	55	B1 (antibody)
66	80	67	71	77	82	69	68	67	73	62	71	86	60	m7D8 (antibody)
83	13	9	94	82	100	96	79	88	98	41	89	100	84	m11B8 (antibody)
52	29	52	67	77	3	25	63	65	2	42	65	5	60	mRTX (antibody)
